Experimental findings from patent US20210388087A1 (Chugai, published 2021) are described below.

B1: CE115HA000 Y58A (antibody, human IgG1, kappa, L234A L235A, N297A, name in Kabat numbering)
heavy: QVQLVESGGGVVQPGRSLRLSCAASGFTFSNAWMHWVRQAPGKGLEWVAQIKAKSNNYATAYAESVKGRFTISRDDSKNSLYLQMNSLKTEDTAVYYCRYVHYGAYYGVDAWGQGTTVTVSSASTKGPSVFPLAPSSKSTSGGTAALGCLVKDYFPEPVTVSWNSGALTSGVHTFPAVLQSSGLYSLSSVVTVPSSSLGTQTYICNVNHKPSNTKVDKKVEPKSCDKTHTCPPCPAPEAAGGPSVFLFPPKPKDTLMISRTPEVTCVVVDVSHEDPEVKFNWYVDGVEVHNAKTKPREEQYASTYRVVSVLTVLHQDWLNGKEYKCKVSNKALPAPIEKTISKAKGQPREPQVYTLPPSRCELTKNQVSLSCAVKGFYPSDIAVEWESNGQPENNYKTTPPVLDSDGSFFLVSKLTVDKSRWQQGNVFSCSVMHEALHNHYTQKSLSLSPDYKDDDDK
chain: EPKSSDKTHTCPPCPAPELLGGPSVFLFPPKPKDTLMISRTPEVTCVVVDVSHEDPEVKFNWYVDGVEVHNAKTKPREEQYNSTYRVVSVLTVLHQDWLNGKEYKCKVSNKALPAPIEKTISKAKGQPREPQVCTLPPSRDELTKNQVSLWCLVKGFYPSDIAVEWESNGQPENNYKTTPPVLDSDGSFFLYSKLTVDKSRWQQGNVFSCSVMHEALHNRYTQKSLSLSP
light: DIVMTQSPLSLPVTPGEPASISCRSSQSLVHSNRNTYLHWYQQKPGQAPRLLIYKVSNRFSGVPDRFSGSGSGTDFTLKISRVEAEDVGVYYCGQGTQVPYTFGQGTKLEIKRTVAAPSVFIFPPSDEQLKSGTASVVCLLNNFYPREAKVQWKVDNALQSGNSQESVTEQDSKDSTYSLSSTLTLSKADYEKHKVYACEVTHQGLSSPVTKSFNRGEC
notes: one-arm antibody
B2: CE115HA000 Y58K (antibody, human IgG1, kappa, L234A L235A, N297A, name in Kabat numbering)
heavy: QVQLVESGGGVVQPGRSLRLSCAASGFTFSNAWMHWVRQAPGKGLEWVAQIKAKSNNYATKYAESVKGRFTISRDDSKNSLYLQMNSLKTEDTAVYYCRYVHYGAYYGVDAWGQGTTVTVSSASTKGPSVFPLAPSSKSTSGGTAALGCLVKDYFPEPVTVSWNSGALTSGVHTFPAVLQSSGLYSLSSVVTVPSSSLGTQTYICNVNHKPSNTKVDKKVEPKSCDKTHTCPPCPAPEAAGGPSVFLFPPKPKDTLMISRTPEVTCVVVDVSHEDPEVKFNWYVDGVEVHNAKTKPREEQYASTYRVVSVLTVLHQDWLNGKEYKCKVSNKALPAPIEKTISKAKGQPREPQVYTLPPSRCELTKNQVSLSCAVKGFYPSDIAVEWESNGQPENNYKTTPPVLDSDGSFFLVSKLTVDKSRWQQGNVFSCSVMHEALHNHYTQKSLSLSPDYKDDDDK
chain: EPKSSDKTHTCPPCPAPELLGGPSVFLFPPKPKDTLMISRTPEVTCVVVDVSHEDPEVKFNWYVDGVEVHNAKTKPREEQYNSTYRVVSVLTVLHQDWLNGKEYKCKVSNKALPAPIEKTISKAKGQPREPQVCTLPPSRDELTKNQVSLWCLVKGFYPSDIAVEWESNGQPENNYKTTPPVLDSDGSFFLYSKLTVDKSRWQQGNVFSCSVMHEALHNRYTQKSLSLSP
light: DIVMTQSPLSLPVTPGEPASISCRSSQSLVHSNRNTYLHWYQQKPGQAPRLLIYKVSNRFSGVPDRFSGSGSGTDFTLKISRVEAEDVGVYYCGQGTQVPYTFGQGTKLEIKRTVAAPSVFIFPPSDEQLKSGTASVVCLLNNFYPREAKVQWKVDNALQSGNSQESVTEQDSKDSTYSLSSTLTLSKADYEKHKVYACEVTHQGLSSPVTKSFNRGEC
notes: one-arm antibody
B3: CE115HA000 Y58L (antibody, human IgG1, kappa, L234A L235A, N297A, name in Kabat numbering)
heavy: QVQLVESGGGVVQPGRSLRLSCAASGFTFSNAWMHWVRQAPGKGLEWVAQIKAKSNNYATLYAESVKGRFTISRDDSKNSLYLQMNSLKTEDTAVYYCRYVHYGAYYGVDAWGQGTTVTVSSASTKGPSVFPLAPSSKSTSGGTAALGCLVKDYFPEPVTVSWNSGALTSGVHTFPAVLQSSGLYSLSSVVTVPSSSLGTQTYICNVNHKPSNTKVDKKVEPKSCDKTHTCPPCPAPEAAGGPSVFLFPPKPKDTLMISRTPEVTCVVVDVSHEDPEVKFNWYVDGVEVHNAKTKPREEQYASTYRVVSVLTVLHQDWLNGKEYKCKVSNKALPAPIEKTISKAKGQPREPQVYTLPPSRCELTKNQVSLSCAVKGFYPSDIAVEWESNGQPENNYKTTPPVLDSDGSFFLVSKLTVDKSRWQQGNVFSCSVMHEALHNHYTQKSLSLSPDYKDDDDK
chain: EPKSSDKTHTCPPCPAPELLGGPSVFLFPPKPKDTLMISRTPEVTCVVVDVSHEDPEVKFNWYVDGVEVHNAKTKPREEQYNSTYRVVSVLTVLHQDWLNGKEYKCKVSNKALPAPIEKTISKAKGQPREPQVCTLPPSRDELTKNQVSLWCLVKGFYPSDIAVEWESNGQPENNYKTTPPVLDSDGSFFLYSKLTVDKSRWQQGNVFSCSVMHEALHNRYTQKSLSLSP
light: DIVMTQSPLSLPVTPGEPASISCRSSQSLVHSNRNTYLHWYQQKPGQAPRLLIYKVSNRFSGVPDRFSGSGSGTDFTLKISRVEAEDVGVYYCGQGTQVPYTFGQGTKLEIKRTVAAPSVFIFPPSDEQLKSGTASVVCLLNNFYPREAKVQWKVDNALQSGNSQESVTEQDSKDSTYSLSSTLTLSKADYEKHKVYACEVTHQGLSSPVTKSFNRGEC
notes: one-arm antibody
B4: CE115HA000 Y58D (antibody, human IgG1, kappa, L234A L235A, N297A, name in Kabat numbering)
heavy: QVQLVESGGGVVQPGRSLRLSCAASGFTFSNAWMHWVRQAPGKGLEWVAQIKAKSNNYATDYAESVKGRFTISRDDSKNSLYLQMNSLKTEDTAVYYCRYVHYGAYYGVDAWGQGTTVTVSSASTKGPSVFPLAPSSKSTSGGTAALGCLVKDYFPEPVTVSWNSGALTSGVHTFPAVLQSSGLYSLSSVVTVPSSSLGTQTYICNVNHKPSNTKVDKKVEPKSCDKTHTCPPCPAPEAAGGPSVFLFPPKPKDTLMISRTPEVTCVVVDVSHEDPEVKFNWYVDGVEVHNAKTKPREEQYASTYRVVSVLTVLHQDWLNGKEYKCKVSNKALPAPIEKTISKAKGQPREPQVYTLPPSRCELTKNQVSLSCAVKGFYPSDIAVEWESNGQPENNYKTTPPVLDSDGSFFLVSKLTVDKSRWQQGNVFSCSVMHEALHNHYTQKSLSLSPDYKDDDDK
chain: EPKSSDKTHTCPPCPAPELLGGPSVFLFPPKPKDTLMISRTPEVTCVVVDVSHEDPEVKFNWYVDGVEVHNAKTKPREEQYNSTYRVVSVLTVLHQDWLNGKEYKCKVSNKALPAPIEKTISKAKGQPREPQVCTLPPSRDELTKNQVSLWCLVKGFYPSDIAVEWESNGQPENNYKTTPPVLDSDGSFFLYSKLTVDKSRWQQGNVFSCSVMHEALHNRYTQKSLSLSP
light: DIVMTQSPLSLPVTPGEPASISCRSSQSLVHSNRNTYLHWYQQKPGQAPRLLIYKVSNRFSGVPDRFSGSGSGTDFTLKISRVEAEDVGVYYCGQGTQVPYTFGQGTKLEIKRTVAAPSVFIFPPSDEQLKSGTASVVCLLNNFYPREAKVQWKVDNALQSGNSQESVTEQDSKDSTYSLSSTLTLSKADYEKHKVYACEVTHQGLSSPVTKSFNRGEC
notes: one-arm antibody
B5: CE115HA000 Y58Q (antibody, human IgG1, kappa, L234A L235A, N297A, name in Kabat numbering)
heavy: QVQLVESGGGVVQPGRSLRLSCAASGFTFSNAWMHWVRQAPGKGLEWVAQIKAKSNNYATQYAESVKGRFTISRDDSKNSLYLQMNSLKTEDTAVYYCRYVHYGAYYGVDAWGQGTTVTVSSASTKGPSVFPLAPSSKSTSGGTAALGCLVKDYFPEPVTVSWNSGALTSGVHTFPAVLQSSGLYSLSSVVTVPSSSLGTQTYICNVNHKPSNTKVDKKVEPKSCDKTHTCPPCPAPEAAGGPSVFLFPPKPKDTLMISRTPEVTCVVVDVSHEDPEVKFNWYVDGVEVHNAKTKPREEQYASTYRVVSVLTVLHQDWLNGKEYKCKVSNKALPAPIEKTISKAKGQPREPQVYTLPPSRCELTKNQVSLSCAVKGFYPSDIAVEWESNGQPENNYKTTPPVLDSDGSFFLVSKLTVDKSRWQQGNVFSCSVMHEALHNHYTQKSLSLSPDYKDDDDK
chain: EPKSSDKTHTCPPCPAPELLGGPSVFLFPPKPKDTLMISRTPEVTCVVVDVSHEDPEVKFNWYVDGVEVHNAKTKPREEQYNSTYRVVSVLTVLHQDWLNGKEYKCKVSNKALPAPIEKTISKAKGQPREPQVCTLPPSRDELTKNQVSLWCLVKGFYPSDIAVEWESNGQPENNYKTTPPVLDSDGSFFLYSKLTVDKSRWQQGNVFSCSVMHEALHNRYTQKSLSLSP
light: DIVMTQSPLSLPVTPGEPASISCRSSQSLVHSNRNTYLHWYQQKPGQAPRLLIYKVSNRFSGVPDRFSGSGSGTDFTLKISRVEAEDVGVYYCGQGTQVPYTFGQGTKLEIKRTVAAPSVFIFPPSDEQLKSGTASVVCLLNNFYPREAKVQWKVDNALQSGNSQESVTEQDSKDSTYSLSSTLTLSKADYEKHKVYACEVTHQGLSSPVTKSFNRGEC
notes: one-arm antibody
B6: CE115HA000 Y58N (antibody, human IgG1, kappa, L234A L235A, N297A, name in Kabat numbering)
heavy: QVQLVESGGGVVQPGRSLRLSCAASGFTFSNAWMHWVRQAPGKGLEWVAQIKAKSNNYATNYAESVKGRFTISRDDSKNSLYLQMNSLKTEDTAVYYCRYVHYGAYYGVDAWGQGTTVTVSSASTKGPSVFPLAPSSKSTSGGTAALGCLVKDYFPEPVTVSWNSGALTSGVHTFPAVLQSSGLYSLSSVVTVPSSSLGTQTYICNVNHKPSNTKVDKKVEPKSCDKTHTCPPCPAPEAAGGPSVFLFPPKPKDTLMISRTPEVTCVVVDVSHEDPEVKFNWYVDGVEVHNAKTKPREEQYASTYRVVSVLTVLHQDWLNGKEYKCKVSNKALPAPIEKTISKAKGQPREPQVYTLPPSRCELTKNQVSLSCAVKGFYPSDIAVEWESNGQPENNYKTTPPVLDSDGSFFLVSKLTVDKSRWQQGNVFSCSVMHEALHNHYTQKSLSLSPDYKDDDDK
chain: EPKSSDKTHTCPPCPAPELLGGPSVFLFPPKPKDTLMISRTPEVTCVVVDVSHEDPEVKFNWYVDGVEVHNAKTKPREEQYNSTYRVVSVLTVLHQDWLNGKEYKCKVSNKALPAPIEKTISKAKGQPREPQVCTLPPSRDELTKNQVSLWCLVKGFYPSDIAVEWESNGQPENNYKTTPPVLDSDGSFFLYSKLTVDKSRWQQGNVFSCSVMHEALHNRYTQKSLSLSP
light: DIVMTQSPLSLPVTPGEPASISCRSSQSLVHSNRNTYLHWYQQKPGQAPRLLIYKVSNRFSGVPDRFSGSGSGTDFTLKISRVEAEDVGVYYCGQGTQVPYTFGQGTKLEIKRTVAAPSVFIFPPSDEQLKSGTASVVCLLNNFYPREAKVQWKVDNALQSGNSQESVTEQDSKDSTYSLSSTLTLSKADYEKHKVYACEVTHQGLSSPVTKSFNRGEC
notes: one-arm antibody

T1 sequence (P07766 23-126): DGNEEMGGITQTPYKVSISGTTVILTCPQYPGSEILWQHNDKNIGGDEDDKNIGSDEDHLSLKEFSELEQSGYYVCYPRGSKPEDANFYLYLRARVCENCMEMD

This experiment concerns the target T1, CD3 epsilon homodimer protein (UniProt P07766 23-126).
T1 construct: also called CD3 (CD3 epsilon)
Nature of the experiment: SPR, CD3 epsilon homodimer on chip, one-arm antibody as analyte.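 Further: surface plasmon resonance at 25 °C with CD3 epsilon homodimer amine-coupled to a CM4 sensor chip, antibody injected as analyte, HBS-EP+ as running buffer.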
With B1, the “KD ratio (KD of CE115HA000/KD of altered form)” value turned out to be 1.06.
The same measure for B2: 0.66; for B3: 1.21.
On to B4, for which the “KD ratio (KD of CE115HA000/KD of altered form)” value is 4.81.
The same measure for B5: 1.24; for B6: 1.86.
